Target: EGFP-LOV2-OPTN_((412-520)) (Avena sativa | not stated) (UniProt Q96CV9)
Test: SEC

stoichiometry N: 2
Substance: EGFP-LOV2-OPTN_((412-520)) (from UniProt Q96CV9 412-520) (designed binder)

Source: publication doi:10.1101/068965
